In patent US20250333461A1 (BEIJING QL BIOPHARMACEUTICAL, published 2025):

Target: human beta-Klotho (human, UniProt Q86Z14 1-1044)
Assay: cell-based or functional assay

FGF21 activity (EC50, nM); p-ERK levels, 1% HSA: 0.96 nM
B1: Native FGF21 (ligand)
chain: HPIPDSSPLLQFGGQVRQRYLYTDDAQQTEAHLEIREDGTVGGAADQSPESLLQLKALKPGVIQILGVKTSRFLCQRPDGALYGSLHFDPEACSFRELLLEDGYNVYQSEAHGLPLHLPGNKSPHRDPAPRGPARFLPLPGLPPALPEPPGILAPQPPDVGSSDPLSMVGPSQGRSPSYAS
